Assay results reported in patent US20130316374A1, “BREAST CANCER DIAGNOSTICS” (IMBA - INSTITUT FUR MOLEKULARE BIOTECHNOLOGIE GMBH, priority 2010, published 2013).

B1: RANKL: Receptor Activator of NF-κB Ligand; recombinant murine RANKL used for stimulation (protein, UniProt O35235 139-316, looked up)
Tumor necrosis factor ligand …: FSGAPAMMEGSWLDVAQRGKPEAQPFAHLTINAASIPSGSHKVTLSSWYHDRGWAKISNMTLSNGKLRVNQDGFYYLYANICFRHHETSGSVPTDYLQLMVYVVKTSIKIPSSHNLMKGGSTKNWSGNSEFHFYSINVGGFFKLRAGEEISIQVSNPSLLDPDQDATYFGAFKVQDID

Columns and labels:
mammary epithelial cells = assay: γ-irradiation induced mammary epithelial cell apoptosis in vivo (active Caspase 3); design: species or system mouse; conditions: 5 Gray
Protocol: a, Western blotting for phosphorylated (P) IKKα, total IKKα, phosphorylated (P) p65 NFκB, total p65 NFκB, phosphorylated (P) IκBα, and total IκBα in isolated primary mouse mammary gland epithelial cells (MECs) in response to RANKL stimulation (1 μg/ml). […] Expression was determined by qRT-PCR. […] Apoptosis was detected by immunostaining for active Caspase 3. f, Apoptotic nuclei of epithelial cells (arrows) are shown for representative mammary gland sections. Magnifications ×40. g, Quantification of mammary epithelial apoptosis. A minimum of 5000 nuclei was counted for each mouse. […]
a,b, Reduced induction of mammary epithelial cell apoptosis in response to γ-irradiation in IKKαhu Δmam females. […] 24 hours after irradiation, apoptosis was detected by immunostaining for active Caspase 3. a, Apoptotic nuclei of epithelial cells (arrows) are shown for representative mammary gland sections. Magnifications ×40. b, Quantification of mammary epithelial apoptosis. A minimum of 5000 nuclei was counted for each mouse. […]
For histological analysis, 5 μm sections were cut and stained with hematoxylin and eosin (H&E). […] Histomorphometric indices (proliferation and apoptosis) were calculated as the number of positive epithelial cells divided by the total number of epithelial cells, with no fewer than 1000 nuclei for Ki67 stainings and no fewer than 5000 cells for active Caspase 3 staining counted per section. […]

[1] = test system: primary mouse mammary gland epithelial cells (MECs); assay: Western blotting of RANKL/RANK downstream signaling in MECs; assay type: cell-based; conditions: RANKL stimulation (1 μg/ml)
Protocol: a, Western blotting for phosphorylated (P) IKKα, total IKKα, phosphorylated (P) p65 NFκB, total p65 NFκB, phosphorylated (P) IκBα, and total IκBα in isolated primary mouse mammary gland epithelial cells (MECs) in response to RANKL stimulation (1 μg/ml). […] is shown as loading control. b, Western blotting for IKKα, IKKβ, IKKγ, phosphorylated (P) p65 NFκB, total p65 NFκB, phosphorylated (P) IκBα, and total IκBα in pooled late stage mammary adenocarconimas (n=4 for each lane) that developed in control, RANK^Δmam, and IKKα^Δmam females. β-actin is shown as loading control c, Expression of RANK, CyclinD1, and p21 mRNA in late stage mammary adenocacinomas that developed in control, RANK^Δmam, and IKKα^Δmam females. Expression was determined by qRT-PCR. Data are mean values+/−sem. n=4 per group. d, Soft-Agar Colony Formation Assay. Growth of human SKBR3 breast cancer cells in soft agar in response to stimulation with RANKL (1 μg/ml) or EGF (100 ng/ml). […] Apoptosis was detected by immunostaining for active Caspase 3. f, Apoptotic nuclei of epithelial cells (arrows) are shown for representative mammary gland sections. Magnifications ×40. g, Quantification of mammary epithelial apoptosis. A minimum of 5000 nuclei was counted for each mouse. […]

[2] = test system: human SKBR3 breast cancer cells; assay: Western blotting of RANKL/RANK downstream signaling in SKBR3 cells; assay type: cell-based; conditions: RANKL stimulation (1 μg/ml)
Protocol: a, Western blotting for phosphorylated (P) p65 NFκB, total p65 NFκB, phosphorylated (P) IκBα, total IκBα, phosphorylated (P) ERK1/2, total ERK1/2, phosphorylated (P) p38-MAPK, and p38-MAPK in human SKBR3 breast cancer cells in response to RANKL stimulation (1 μg/ml). Data are representative of 3 experiments. b, Growth curve of SKBR3 breast cancer cells cultured in normal growth medium (control, DMEM supplemented with 10% FCS) or in the presence of RANKL (1 μg/ml). Cell numbers were determined by counting live cells (trypan blue-exclusion) over 3 days. c, Onset of palpable mammary tumors in NFATc1^Δmam (n=10) and age matched littermate control (n=16) females treated with MPA pellets and DMBA. Data are shown as percentage of tumor free mice after the last DMBA challenge. No significant difference was found. d, Quantification of NFATc1 mRNA expression in purified mammary epithelial cells (MECs) and MPA-driven mammary tumors from NFATc1^Δmam and littermate control females. mRNA was determined by qRT-PCR. Data are shown as fold change compared to control (+/−sem). n=5 Per group. *P<0.05 (Student's t-test).
The human epithelial breast tumor cell line SKBR3 and primary non-transformed mouse mammary epithelial cells were left untreated or stimulated with recombinant murine RANKL^ref. 9. Adenocarcinomas were isolated from control and mutant mice and total protein lysates prepared. […]

Molecule	γ-irradiation-induced apoptosis of mammary epithelial cells (mammary epithelial cells; control females, MPA pellet)	protective effects of MPA on γ-irradiation-induced cell death (mammary epithelial cells; loss of RANK expression on mammary epithelial cells (RANK^Δmam))	p65 NFκB and IκBα phosphorylation [1]	phosphorylation of p38-MAPKs and ERK [1]	NFκB, p38-MAPKs and ERK activation [2]
CC(=O)O[C@]1(C(C)=O)CC[C@H]2[C@@H]3C[C@H](C)C4=CC(=O)CC[C@]4(C)[C@H]3CC[C@@]21C [MPA, medroxyprogesterone acetate]	protected from γ-irradiation-induced apoptosis	abrogated			
B1			resulted in p65 NFκB and IκBα phosphorylation	triggered phosphorylation of p38-MAPKs and ERK	induced NFκB, p38-MAPKs and ERK activation
